Patent US20060094013

B1: GST-rat SIK1 (protein)
chain: MVIMSEFSAVPTGTGQGQQKPLRVGFYDVERTLGKGNFAVVKLARHRVTKTQVAIKIIDKTRLDSSNLEKIYREVQLMKLLNHPNIIKLYQVMETKDMLYIVTEFAKNGEMFDYLTSNGHLSENEARKKFWQILSAVEYCHNHHIVHRDLKTENLLLDGNMDIKLADFGFGNFYKPGEPLSTWCGSPPYAAPEVFEGKEYEGPQLDIWSLGVVLYVLVCGSLPFDGPNLPTLRQRVLEGRFRIPFFMSQDCETLIRRMLVVDPAKRITIAQIRQHRWMQADPTLLQQDDPAFSMQGYTSNLGDYNEQVLGIMQALGIDRQRTVESLQNSSYNHFAAIYYLLLERLREHRSTQPSSRATPAPARQPQLRNSDLSSLEVPQEILPCDPFRPSLLCPQPQALAQSVLQAEIDCDLHSSLQPLFFPLDTNCSGVFRHRSISPSSLLDTAISEEARQGPSLEEEQEVQEPLPGSTGRRHTLAEVSTHFSPLNPPCIIVSSSAAVSPSEGTSSDSCLPFSASEGPAGLGGGLATPGLLGTSSPVRLASPFLGSQSATPVLQSQAGLGATVLPPVSFQEGRRASDTSLTQGLKAFRQQLRKNARTKGFLGLNKIKGLARQVCQSSIRGSRGGMSTFHTPAPSSGLQGCTASSREGRSLLEEVLHQQRLLQLQHHSAVSSDYQQAPQLSPVPYVLTPCDGLLVSGIPLLPTPLLQPGMSPVASAAQLLDAHLHISAGPVALPTGPLPQCLTRLSPSCDPAGLPQGDCEMEDLTSGQRGTFVLVQ
B2: GST-mSIK2 (protein)
chain: MVMADGPRHLQRGPVRVGFYDIEGTLGKGNFAVVKLGRHRTTKTEVAIKIIDKSQLDAVNLEKIYREVQIMKMLDHPHIIKLYQVMETKSMLYLVTEYAKNGEIFDYLANHGRLNESEARRKFWQILSAVDYCHGRKVVHRDLKAENLLLDNNMNIKIADFGFGNFFKTGELLATWCGSPPYAAPEVFEGQQYEGPQLDIWSMGVVLYVLVCGALPFDGPTLPILRQRVLEGRFRIPYFMSEDCEHLIRRMLVLDPSKRLSIAQIKEHKWMLIEVPVQRPILYPQEQENEPSIGEFNEQVLRLMHSLGIDQQKTVESLQNKSYNHFAAIYFLLVERLKSHRSSFPVEQRLDGRQRRPSTIAEQTVAKAQTVGLPVTLHPPNVRLMRSTLLPQASNVEAFSFPTSSCQAEAAFMEEECVDTPKVNGCLLDPVPPVLVRKGCQSLPSSMMETSIDEGLETEGEAEEDPSQAFEAFQATRSGQRRHTLSEVTNQLVVMPGAGKMFSMSDNPSLESVDSEYDMGSAQRDLNFLEDSPSLKDIMLANQPSPRMTSPFISLRPANPAMQALSSQKREAHNRSPVSFREGRRASDTSLTQGIVAFRQHLQNLARTKGILELNKVQLLYEQMGSNADPTLTSTAPQLQDLSSSCPQEEISQQQESVSSLSASMHPQLSPQQSLETQYLQHRLQKPNLLPKAQSPCPVYCKEPPRSLEQQLQEHRLQQKRLFLQKQSQLQAYFNQMQIAESSYPGPSQQLALPHQETPLTSQQPPSFSLTQALSPVLEPSSEQMQFSSFLSQYPEMQLQPLPSTPGPRAPPPLPSQLQQHQQPPPPPPPPPPQQPGAAPTSLQFSYQTCELPSTTSSVPNYPASCHYPVDGAQQSNLTGADCPRSSGLQDTASSYDPLALSELPGLFDCEMVEAVDPQHNGVVSCLARET

What was measured:
[1] = target: GST-Syntide 2 [GST: P08515]
[2] = target: SIK1 peptide wherein serine at position 577 is substituted with alanine (on GST as carrier protein) [GST: P08515]
[3] = target: SIK1 substrate mutant (R574/575A) wherein arginines at positions 574 and 575 are substituted with alanines
[4] = target: SIK1 substrate mutant (R574A) wherein arginine at position 574 is substituted with alanine
[5] = target: SIK1 substrate mutant (R575A) wherein arginine at position 575 is substituted with alanine
[6] = target: wild-type SIK1 peptide not phosphorylated by PKA (on GST as carrier protein) [GST: P08515]
[7] = target: T1, peptide p300 [84-93 (S89A)], Q09472
T1 chain: LLRSGASPNL

Sequence of GST-Syntide 2 [GST: P08515] (P08515 whole entry, looked up): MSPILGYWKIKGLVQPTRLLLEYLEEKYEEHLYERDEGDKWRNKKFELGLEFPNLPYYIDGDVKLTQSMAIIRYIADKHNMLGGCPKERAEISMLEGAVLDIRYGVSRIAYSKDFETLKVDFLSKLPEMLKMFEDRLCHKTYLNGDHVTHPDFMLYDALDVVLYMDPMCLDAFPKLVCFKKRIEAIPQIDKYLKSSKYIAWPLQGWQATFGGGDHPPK
Sequence of wild-type SIK1 peptide not phosphorylated by PKA (on GST as carrier protein) [GST: P08515] (P08515 whole entry, looked up): as above
Sequence of SIK1 peptide wherein serine at position 577 is substituted with alanine (on GST as carrier protein) [GST: P08515] (P08515 whole entry, looked up): as above

| Protein | protein-phosphorylating activity (32P intake, SDS-PAGE) [1] | phosphorylation of the substrate (32P) [2] | phosphorylation of the substrate (32P) [3] | phosphorylation of the substrate (32P) [4] | phosphorylation of the substrate (32P) [5] | phosphorylation of the substrate (32P) [6] | enzyme activity of SIK (phosphorylation of Syntide 2) [7] | phosphorylation by SIK [7] |
| --- | --- | --- | --- | --- | --- | --- | --- | --- |
| B1 | GST-rat SIK1 and GST-rat SIK1 (K56M) were subjected to the same experiment. Consequently, the same results were obtained. | the mutants S577A, R574A, and R574/575A were not phosphorylated | the mutants S577A, R574A, and R574/575A were not phosphorylated | the mutants S577A, R574A, and R574/575A were not phosphorylated | the mutant R575A was phosphorylated much more efficiently than the case of the wild-type SIK1 | the wild-type SIK1 was phosphorylated |  |  |
| B2 | wild-type GST-mSIK2 has an auto-phosphorylating activity and an activity of phosphorylating GST-Syntide 2 |  |  |  |  |  | the unphosphorylated peptide p300 wherein serine at position 89 is substituted with alanine inhibits the enzyme activity of SIK | a peptide wherein serine at position 89 in p300 is substituted with alanine becomes unphosphorylated |
